Measured values taken from the Human Domainome abundance scans (Beltran et al. 2025).
± gives the uncertainty stated by the source.

B1: WW domain-containing transcription regulator protein 1, residues 116 to 162; numbered along this chain, Q9GZV5 (parent)
chain: QSYDVTDELPLPPGWEMTFTATGQRYFLNHIEKITTWQDPRKAMNQP

Variants of: B1
Test: abundance fitness (aPCA) (normalised: wild type 0, dead -1); higher = more abundant; growth selection in yeast, the domain comes from the species named
Settings: Homo sapiens
In the case of T36N, the abundance fitness is reported as -0.754 ± 0.09. In the case of T36H, the abundance fitness is reported as -1.03 ± 0.09. In the case of T36L, the abundance fitness is reported as -1.02 ± 0.1. With T36K the abundance fitness was -0.954 ± 0.12. In the case of T36G, the abundance fitness is reported as -0.775 ± 0.038. T36W gave an abundance fitness of -0.986 ± 0.066. T35S showed an abundance fitness of -0.072 ± 0.028. Variant T35Y has an abundance fitness of -0.413 ± 0.068. For T35M, the abundance fitness was -0.47 ± 0.04. In the case of T35G, the abundance fitness is reported as -0.493 ± 0.033. Variant T35I has an abundance fitness of -0.419 ± 0.05. Variant L11C has an abundance fitness of -0.432 ± 0.049. Variant L11T has an abundance fitness of -0.548 ± 0.042. With L11G the abundance fitness was -0.731 ± 0.029. For L11R, the abundance fitness was -0.847 ± 0.03. Work on L11Q yielded an abundance fitness of -0.684 ± 0.075. Variant L11E has an abundance fitness of -0.767 ± 0.068. Work on L11I yielded an abundance fitness of -0.337 ± 0.04. With L11A the abundance fitness was -0.715 ± 0.038. With L11W the abundance fitness was -0.686 ± 0.033. In the case of V5A, the abundance fitness is reported as -0.088 ± 0.036. Variant V5C has an abundance fitness of -0.126 ± 0.032. For V5H, the abundance fitness was -0.231 ± 0.059. Work on V5L yielded an abundance fitness of -0.103 ± 0.025. For V5P, the abundance fitness was -0.224 ± 0.048. With V5R the abundance fitness was -0.111 ± 0.035. Work on G14A yielded an abundance fitness of -0.365 ± 0.027. With G14D the abundance fitness was -0.259 ± 0.032. With G14F the abundance fitness was -0.534 ± 0.054. Work on G14C yielded an abundance fitness of -0.475 ± 0.042. G14Q gave an abundance fitness of -0.467 ± 0.048. In the case of N29T, the abundance fitness is reported as -0.847 ± 0.051. In the case of N29A, the abundance fitness is reported as -0.919 ± 0.041. N29D gave an abundance fitness of -0.42 ± 0.066. For N29E, the abundance fitness was -0.931 ± 0.063. With N29V the abundance fitness was -1.09 ± 0.036. With N29R the abundance fitness was -0.763 ± 0.048. For N29C, the abundance fitness was -1.04 ± 0.13. With N29I the abundance fitness was -0.949 ± 0.031. N29K showed an abundance fitness of -0.826 ± 0.052. T6E showed an abundance fitness of -0.216 ± 0.041. For T6F, the abundance fitness was -0.074 ± 0.052. T6R showed an abundance fitness of -0.086 ± 0.031. With T6M the abundance fitness was -0.008 ± 0.035. Variant T6A has an abundance fitness of -0.196 ± 0.037. T6C showed an abundance fitness of -0.071 ± 0.056. With T6H the abundance fitness was -0.352 ± 0.067. Work on T6P yielded an abundance fitness of -0.013 ± 0.045. T6I gave an abundance fitness of -0.032 ± 0.046. T6D gave an abundance fitness of -0.104 ± 0.044. In the case of T20E, the abundance fitness is reported as -0.387 ± 0.054. T20A showed an abundance fitness of -0.287 ± 0.036. T20Q showed an abundance fitness of -0.924 ± 0.15. With T20P the abundance fitness was -0.937 ± 0.13. T20W showed an abundance fitness of -1 ± 0.052. T20H gave an abundance fitness of -0.451 ± 0.041. Work on T20N yielded an abundance fitness of -0.081 ± 0.054. With T22W the abundance fitness was -0.357 ± 0.034. Work on T22Y yielded an abundance fitness of -0.422 ± 0.061. T22S showed an abundance fitness of -0.058 ± 0.033. Variant T22E has an abundance fitness of -0.028 ± 0.031. Work on T22P yielded an abundance fitness of -0.557 ± 0.043. Work on M17E yielded an abundance fitness of 0.017 ± 0.028. M17C showed an abundance fitness of -0.035 ± 0.032. M17L showed an abundance fitness of -0.067 ± 0.031. In the case of M17V, the abundance fitness is reported as -0.05 ± 0.024. With M17F the abundance fitness was -0.172 ± 0.036. With M17I the abundance fitness was -0.09 ± 0.044. With M17N the abundance fitness was -0.582 ± 0.046. For M17H, the abundance fitness was -0.44 ± 0.05. In the case of M17Y, the abundance fitness is reported as -0.264 ± 0.044. D7S gave an abundance fitness of -0.104 ± 0.038. In the case of D7I, the abundance fitness is reported as -0.195 ± 0.055. Work on D7M yielded an abundance fitness of -0.185 ± 0.049. Work on D7V yielded an abundance fitness of -0.207 ± 0.035. D7Q showed an abundance fitness of -0.178 ± 0.053. H30Q showed an abundance fitness of -0.076 ± 0.033. With H30L the abundance fitness was -0.344 ± 0.035. H30T showed an abundance fitness of -0.106 ± 0.034. With H30Y the abundance fitness was -0.338 ± 0.052. In the case of H30G, the abundance fitness is reported as -0.3 ± 0.027. Variant H30M has an abundance fitness of -0.259 ± 0.026. With H30C the abundance fitness was -0.333 ± 0.046.
